Results reported in the supplement of paper PMC9170038.

System: MS2 coat protein
Assay: apparent KD of MS2 coat protein; designed switch direction (-1 OFF switch, 1 ON switch): 1; higher = weaker reporter binding
Procedure, shortened: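 Stalled E. coli RNA polymerase transcribed designed RNA switches on Illumina chips, which were then titrated with SNAP-549-labelled MS2 coat protein, doubling from 0.7 or 1.5 nM to 3 µM. Steps lasted from 0.8–1.5 h at the lowest concentration to 10–20 min at the highest. The apparent KD is each design's median over clusters of curve-fitted normalised fluorescence.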

[1] = input ligand: microRNA oligo, concentration not stated
[2] = Eterna round: R95, input ligand: FMN 200 uM
[3] = Eterna round: R95, input ligand: microRNA oligo, concentration not stated
[4] = Eterna round: R95, input ligand: none

## ACCGAGAGGCUAGGAUAUUAGGGCAUUUGCAUAUGAGAAGGAGCCAGAUGGCCACAUGAGGAUCACCCAUGUCAACCCUGGACA [Eternabot solution 4] (Eterna round: R96, puzzle: Same State NG 1)
Input ligand: FMN 200 uM
  apparent KD of MS2 coat protein: 22.5 nM
[1]
  apparent KD of MS2 coat protein: 12.9 nM
Input ligand: none
  apparent KD of MS2 coat protein: 18.2 nM

## AAAAAACAUGAGGAUCACCCAUGUCAAAAGACGUGAGGAUAUGUACAGACUUCGGUCUGUACAGAAGGCACGAAAA [SS1 - 1037] (Eterna round: R96, puzzle: Same State 1)
Input ligand: FMN 200 uM
  apparent KD of MS2 coat protein: 17.6 nM
[1]
  apparent KD of MS2 coat protein: 19.1 nM
Input ligand: none
  apparent KD of MS2 coat protein: 26.9 nM

## GAGGAACAUGAGGAUCACCCAUGUAAAGGGUUUAAAGGAUAUUAUUGGGAGAAAGUAGGGUAAGAAGGUUGAUUGG [JR_SS1_Sub087] (puzzle: Same State 1)
[2]
  apparent KD of MS2 coat protein: 120 nM
[3]
  apparent KD of MS2 coat protein: 127 nM
[4]
  apparent KD of MS2 coat protein: 168 nM

## GCGAGCGUACUUGCAACAUGAGGAUCACCCAUGUUAACUGGACAGGAUAUGGUACCGUUUCGGUACCAGAAGGGUUCCUUCAUG [JL SSNG3 3.60] (Eterna round: R96, puzzle: Same State NG 3)
Input ligand: FMN 200 uM
  apparent KD of MS2 coat protein: 167 nM
[1]
  apparent KD of MS2 coat protein: 166 nM
Input ligand: none
  apparent KD of MS2 coat protein: 268 nM

## CUCAAACAUGAGGAUCACCCAUGUUUUUUCAUGGGAGGAUAUCUAAGUUCAUUAUAUUCAGGAGAAGGCCUAUGUC [× ×•×ª×• ×ž×“×™× ×” × ×—×ª-07] (puzzle: Same State 1)
[2]
  apparent KD of MS2 coat protein: 159 nM
[3]
  apparent KD of MS2 coat protein: 729 nM
[4]
  apparent KD of MS2 coat protein: 261 nM

## GAGUGACAUGAGGAUCACCCAUGUAGAAUAGAACAAGGAUAUGUGGAAGGCGGAGGAGAGACAGAAGGUGUUGAGG [JR_SS1_Sub058] (puzzle: Same State 1)
[2]
  apparent KD of MS2 coat protein: 52 nM
[3]
  apparent KD of MS2 coat protein: 77.1 nM
[4]
  apparent KD of MS2 coat protein: 119 nM

## AGAUCAUGACGAGGAUAUGCCACAUGAGGAUCACCCAUGUAUGUGGUAGGACGCGUACGUCCAAAGCAGAAGGCGUCGUGGUCA [JL SSNG2 1.01] (Eterna round: R96, puzzle: Same State NG 2)
Input ligand: FMN 200 uM
  apparent KD of MS2 coat protein: 17.2 nM
[1]
  apparent KD of MS2 coat protein: 28.5 nM
Input ligand: none
  apparent KD of MS2 coat protein: 55.5 nM

## AGUCCAGCGAAAGCUGGACAAAAGCAUGUACAUGAGGAUCACCCAUGUUCAUGUAUAAGCUUUUUGCUCGUUUUAAA [JL mod - D95 - 17] (puzzle: Sensor for hsa-mir-208a)
[2]
  apparent KD of MS2 coat protein: 16.2 nM
[3]
  apparent KD of MS2 coat protein: 10.2 nM
[4]
  apparent KD of MS2 coat protein: 15.9 nM

## AGUCCAGCCAAAGCUGGACAAAAGCAUGUACAUGAGGAUCACCCAUGUCAUGUACAAGCUUUUUGCUCGUCUUAAUA [Mat - hsa-mir-208a - Mod of JL - D38] (puzzle: Sensor for hsa-mir-208a)
[2]
  apparent KD of MS2 coat protein: 464 nM
[3]
  apparent KD of MS2 coat protein: 16 nM
[4]
  apparent KD of MS2 coat protein: 611 nM

## GUACAGAUUAUAGGAUAUCACGUCGAUUAGACGUGAGAAGGAUAAUCACACAUGAAUAUUAAUACAUGAGGAUCACCCAUGUAC [SSNG1/17-A2] (Eterna round: R96, puzzle: Same State NG 1)
Input ligand: FMN 200 uM
  apparent KD of MS2 coat protein: 12.9 nM
[1]
  apparent KD of MS2 coat protein: 12.9 nM
Input ligand: none
  apparent KD of MS2 coat protein: 17 nM

## CACAAUCUAUCUGAGGAUAUCAUGAAAAAAACAUGAGGAUCACCCAUGUGCAGGAAAACUGCAUAUGAGAAGGCAGAUAGAUUGG [salish99_SS2_r3_014] (puzzle: Same State 2)
[2]
  apparent KD of MS2 coat protein: 29.7 nM
[3]
  apparent KD of MS2 coat protein: 577 nM
[4]
  apparent KD of MS2 coat protein: 1090 nM

## CUAUCUACAGGUUUCAGUGCUCGUCUUAUACAUGAGGAUCACCCAUGUUAUAGCCCGGUGCUUGCGCUGGGCUGAUU [JL ViennaUCT Tearor mod 3] (puzzle: Sensor for hsa-mir-208a)
[2]
  apparent KD of MS2 coat protein: 31.4 nM
[3]
  apparent KD of MS2 coat protein: 14.8 nM
[4]
  apparent KD of MS2 coat protein: 39.3 nM

## CGGCGUUGUCGAGAGGAUAUGCGGUGAUGGACAUGAGGAUCACCCAUGUUAGCGAUAGCAUUACGGUAGAAGGCUCUACAGCUGC [Soteed Omei mod 7] (puzzle: Same State 2)
[3]
  apparent KD of MS2 coat protein: 42.5 nM

## GUUACAUGAGGAUCACCCAUGUAUGUGUGGGAGUAAGUGUCUUAGGAUAUCUAGUAGUUAAUUUAAGAGAAGGAAGAUUGUUGU [JMF's solution 55] (Eterna round: R96, puzzle: Same State NG 3)
Input ligand: FMN 200 uM
  apparent KD of MS2 coat protein: 145 nM
[1]
  apparent KD of MS2 coat protein: 81.9 nM
Input ligand: none
  apparent KD of MS2 coat protein: 104 nM

## CAGCACUGUCGAGAGGAUAUGCGGUGAUGGACAUGAGGAUCACCCAUGUUAGCGACAGCAUCACGGCAGAAGGCUCUGCUGCUGC [Soteed Omei mod 36] (puzzle: Same State 2)
[3]
  apparent KD of MS2 coat protein: 47.7 nM

## AGAGAACAUGAGGAUCACCCAUGUAGGAUGGGCAUAGGAUAUAGAGGAAUGAGGGAGGAGCUAGAAGGAUGAUGGA [JR_SS1_Sub078] (puzzle: Same State 1)
[2]
  apparent KD of MS2 coat protein: 110 nM
[3]
  apparent KD of MS2 coat protein: 192 nM
[4]
  apparent KD of MS2 coat protein: 145 nM

## UGGCUCAGACGAGGAUAUGAUCAUGGCGCUUCGGCGCAUACAUGAGGAUCACCCAUGUAAAGUGAUCAGAAGGUGUCUGAGCCA [SSNG2/7-B2] (Eterna round: R96, puzzle: Same State NG 2)
Input ligand: FMN 200 uM
  apparent KD of MS2 coat protein: 13 nM
[1]
  apparent KD of MS2 coat protein: 11.6 nM
Input ligand: none
  apparent KD of MS2 coat protein: 14.5 nM

## UGGUUGGAGAGAGAGGAUAUCCAAUUUUCAACAUGAGGAUCACCCAUGUAGAACGUAGGUAAUUGGGAGAAGGCUCAAGAGACAU [salish99_ss2_r3_100] (puzzle: Same State 2)
[2]
  apparent KD of MS2 coat protein: 26.9 nM
[3]
  apparent KD of MS2 coat protein: 14.5 nM
[4]
  apparent KD of MS2 coat protein: 23.5 nM

## AUAUGAGAAGCAGGAUAUGUGGAGAAGAAACAAACAGAAGGGUUUAUGGGACAACAUGAGGAUCACCCAUGUUCUCUGUGAUGA [AK SSNG1-V2-2] (Eterna round: R96, puzzle: Same State NG 1)
Input ligand: FMN 200 uM
  apparent KD of MS2 coat protein: 52.5 nM
[1]
  apparent KD of MS2 coat protein: 44.3 nM
Input ligand: none
  apparent KD of MS2 coat protein: 59.2 nM

## AGGCUGAGUCGAGGAUAUUAUGGAUCCUCUAAUACAUGAGGAUCACCCAUGUAAUUAAUUAUACAUGAGAAGGCGACUCAGCCU [SSNG2/12-A4] (Eterna round: R96, puzzle: Same State NG 2)
Input ligand: FMN 200 uM
  apparent KD of MS2 coat protein: 533 nM
[1]
  apparent KD of MS2 coat protein: 15 nM
Input ligand: none
  apparent KD of MS2 coat protein: 34.7 nM

## GUGGUGUAGAUACAGGAUAUGUUGCUCGUAACAUGAGGAUCACCCAUGUAUCUAUGAGAAUAAAUGCAGAAGGGUGCACACCACU [Mat - Same State 2 - Mod of UCT - D74] (Eterna round: R96, puzzle: Same State 2)
Input ligand: FMN 200 uM
  apparent KD of MS2 coat protein: 26.1 nM
[1]
  apparent KD of MS2 coat protein: 197 nM
Input ligand: none
  apparent KD of MS2 coat protein: 489 nM

## GGUUUAGUCGAGUGCCAUUCCACUCGAAAACAUGAGGAUCACCCAUGUUUGGGACAAGCUUUGCUCCUCGUCUUUCC [Inertequ] (puzzle: Sensor for hsa-mir-208a)
[2]
  apparent KD of MS2 coat protein: 259 nM
[3]
  apparent KD of MS2 coat protein: 75.8 nM
[4]
  apparent KD of MS2 coat protein: 371 nM

## UCUUGGUUUUUGCUCGUUUUUUGUGUUGAACAUGAGGAUCACCCAUGUAUUGUACAAUCCAGUUUAAUAAUGGUCCG [JMF 49] (puzzle: Sensor for hsa-mir-208a)
[2]
  apparent KD of MS2 coat protein: 105 nM
[3]
  apparent KD of MS2 coat protein: 87.3 nM
[4]
  apparent KD of MS2 coat protein: 130 nM

## GUAAGUUCGAUGCUCGUCUCUCCGUACAAACAUGAGGAUCACCCAUGUGAUCGGGCAGUAGCCCGAUCAGUAUGGCC [Xearlaxe] (puzzle: Sensor for hsa-mir-208a)
[2]
  apparent KD of MS2 coat protein: 44 nM
[3]
  apparent KD of MS2 coat protein: 22.6 nM
[4]
  apparent KD of MS2 coat protein: 47 nM

## GGAAUAUUUACAGGAUAUGAUUUGUAAAGUCGAUCAGAAGGGUGGAUGUCUUACACGGUUUGUUACAUGAGGAUCACCCAUGUC [SameState NG1 #13] (Eterna round: R96, puzzle: Same State NG 1)
Input ligand: FMN 200 uM
  apparent KD of MS2 coat protein: 232 nM
[1]
  apparent KD of MS2 coat protein: 233 nM
Input ligand: none
  apparent KD of MS2 coat protein: 378 nM

## AAAGCACAUGAGGAUCACCCAUGUGGAAAUAACACAGGAUAUCUGACCGAAACUAAGGCGAGAGAAGGGUGACCUA [Engeerbi] (puzzle: Same State 1)
[2]
  apparent KD of MS2 coat protein: 148 nM
[3]
  apparent KD of MS2 coat protein: 62.8 nM
[4]
  apparent KD of MS2 coat protein: 78.9 nM

## AGAUCAUGACGAGGAUAUGGUACAUGAGGAUCACCCAUGUAUGUACCACGACGGAAACGUCGAAUCCAGAAGGCGUCAUGAUCA [Mat - Same State NG 2 - JL mod - D24] (Eterna round: R96, puzzle: Same State NG 2)
Input ligand: FMN 200 uM
  apparent KD of MS2 coat protein: 30.5 nM
[1]
  apparent KD of MS2 coat protein: 109 nM
Input ligand: none
  apparent KD of MS2 coat protein: 130 nM

## AUAUGAGAAGCAGGAUAUGUGGAGAAGAAAGAAACAGAAGGGCUUAUGGGACAACAUGAGGAUCACCCAUGUUCUCUGUGAUGA [AK SSNG1-V2-2.1] (Eterna round: R96, puzzle: Same State NG 1)
Input ligand: FMN 200 uM
  apparent KD of MS2 coat protein: 42.8 nM
[1]
  apparent KD of MS2 coat protein: 144 nM
Input ligand: none
  apparent KD of MS2 coat protein: 188 nM
